Measured values: patent US20210388082A1 (NEWBIO THERAPEUTICS, published 2021)

T1: CD79b on the surface of human lymphoma cell lines (human, UniProt P40259 29-229)
T1 sequence (looked up): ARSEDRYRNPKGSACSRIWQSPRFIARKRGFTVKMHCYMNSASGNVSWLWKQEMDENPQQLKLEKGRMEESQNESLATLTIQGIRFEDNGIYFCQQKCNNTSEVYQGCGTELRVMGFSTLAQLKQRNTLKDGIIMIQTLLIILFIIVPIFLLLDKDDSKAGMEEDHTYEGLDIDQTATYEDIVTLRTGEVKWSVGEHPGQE

T2: recombinant human CD79b extracellular domain protein (human, UniProt P40259 29-159)
T2 construct: Bought protein; also called CD79b ECD; human CD79b-ECD
T2 sequence: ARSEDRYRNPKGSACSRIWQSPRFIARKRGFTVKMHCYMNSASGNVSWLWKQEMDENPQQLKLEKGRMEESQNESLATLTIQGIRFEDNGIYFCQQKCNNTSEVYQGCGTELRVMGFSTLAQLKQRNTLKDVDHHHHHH


Assays:
[1] = molecular target: T1, CD79b on the surface of human lymphoma …; test: cell-based or functional assay
[2] = molecular target: T1, CD79b on the surface of human lymphoma …; test: cell-based or functional assay; remark: listed apart in the source
[3] = molecular target: T2, recombinant human CD79b extracellular …; test: SPR (Biacore T200), antibody on CM5 chip, CD79b ECD as analyte, 25 C
Description: The assay was performed on a Biacore T200 (GE) machine, and the antibody to be tested was diluted to 10 ug/ml with HBS-EP (GE, BR100826) buffer according to the instruction of Amine-Coupling Kit (GE, BR-1000-50). The antibody to be tested was immobilized on a CM5 chip (GE, BR-1006-68) at a fixing time of 300 sec and a flow rate of 10 ul/min. Different concentrations (0.25 nm, 0.5 nm, 1 nm, 2 nm, 4 nm, 8 (×2) nm, 16 nm) of the recombinant CD79b extracellular domain protein diluted with HBS buffer gradient was subjected to capture reaction by Kinetics program, with the binding time of the antigen-antibody set to 300 seconds, dissociation time set to 900 seconds, flow rate of the antigenic protein to 30 ul/min. The dissociation curves were fitted to calculate the KD values of the different antibodies. The above experiments were all carried out at 25° C.
The affinity of the antibody after humanization was tested by the method described in Section 4 of the “Materials and Methods” section.

[4] = molecular target: T2, recombinant human CD79b extracellular …; test: ELISA, plate coated with human CD79b-ECD
Description: (§1) The experimental procedure was as follows: 96-well plates (Corning, CAT #9018) were coated with 100 μL/well of antigen (human CD79b-ECD, novoprotein, CA29) at 1 μg/mL in PBS (10 mM phosphate, 138 mM NaCl, pH 7.2) at 4° C. overnight, and then blocked with 250 ul/well of blocking solution (PBS+1% BSA (Sangon, CAT #A0332)) for one to three hours at 25° C. Plates were washed 3 times with a washing solution (PBS+0.05% Tween-20 (Sangon, CAT #TB0560)), and then incubated with 100 μL of anti-CD79b antibody in serial dilutions in blocking solution in duplicate wells at 25° C. for 2 h. Plates were washed 3 times with washing solution and then incubated with 100 μL of 1:10,000 the secondary antibody (anti-mouse IgG (Fc)-HRP, Sigma, CAT #A00168 or anti-human IgG F(ab′)2-HRP, Sigma, CAT #A0293) at 25° C. for 1 h. Plates were washed 3 times with washing solution, and then 100 μL of TMB (Sangon, CAT #TB0954) was added to each well and incubated at 25° C. until color developed (approximately 15 min). Reactions were stopped by addition of 100 μl/well stop solution (1N H2SO4). OD450/630 nm was read on plate reader in 10 minutes.

[5] = molecular target: T1, CD79b on the surface of human lymphoma …; test: cell-based or functional assay; remark: listed apart in the source
[6] = molecular target: T2, recombinant human CD79b extracellular …; test: indirect ELISA, plate coated with CD79b antigen
Description: An ELISA anti-antibody was added to bind with the antibody or ADC antibody bound to the solid phase antigen, and unbound anti-antibody was removed by washing. Substrate solution was added, and then the optical density (OD) value at 450 nm/630 nm was read with a microplate reader T, based on which a curve was plotted, and the EC₅₀ was calculated.

[7] = molecular target: T2, recombinant human CD79b extracellular …; test: ELISA, plate coated with human CD79b-ECD; remark: listed apart in the source
Description: as §1
The in vitro binding activity of the anti-CD79b humanized antibody to the extracellular domain of human CD79b was examined by ELISA as described in Section 1 of the Materials and Methods section.

Binder | Kd [3] | koff [3] | kon [3] | EC50 [7] | also measured
recombinant chimeric antibody 104E1 conjugated to BMP-vcMMAE (other, antibody conjugated to BMP-vcMMAE (linker-drug 1); positions not given) VH: QVQLQQSGSELARPGASVKLSCKTSGNTFTSYGINWVKQRTGQGLEWIGEIFPRSGNIYYNEKFKGKATLTADKSSSTAYMELRSLTSEDSAVYFCAKGGTGDFDYWGQGTTLTVSS VL: DVLMTQTPLSLPVSLGDQASISCRSSQNIVHSDGNTYLEWYLQKPGQSPKLLIYKVSFRLSGVPDRFSGSGSGTDFTLKIRRVEAEDLGTYYCFQGSHVPWTFGGGTKLEIK |  |  |  |  | Inhibitory effect on the lymphoma cell proliferation IC50, BJAB [1]: 8.81 ng/mL; Inhibitory effect on the lymphoma cell proliferation IC50, DoHH2 [1]: 4.26 ng/mL; Inhibitory effect on the lymphoma cell proliferation IC50, Granta-519 [1]: 29.6 ng/mL; Inhibitory effect on the lymphoma cell proliferation IC50, Ramos [1]: 4.42 ng/mL; Inhibitory effect on the lymphoma cell proliferation IC50, SU_DHL-4 [1]: 9.46 ng/mL; Inhibitory effect on the lymphoma cell proliferation IC50, U-698-M [1]: 15.9 ng/mL; Inhibitory effect on the lymphoma cell proliferation IC50, WSU-DLCL2 [1]: 16.8 ng/mL; Inhibitory activity on lymphoma cell proliferation IC50, BJAB [2]: 10.4 ng/mL; Inhibitory activity on lymphoma cell proliferation IC50, DoHH2 [2]: 5.75 ng/mL; Inhibitory activity on lymphoma cell proliferation IC50, Granta-519 [2]: 20.8 ng/mL; Inhibitory activity on lymphoma cell proliferation IC50, Ramos [2]: 6.02 ng/mL; Inhibitory activity on lymphoma cell proliferation IC50, SU-DHL-4 [2]: 11.9 ng/mL; Inhibitory activity on lymphoma cell proliferation IC50, U-698-M [2]: 9.52 ng/mL; Inhibitory activity on lymphoma cell proliferation IC50, WSU-DLCL2 [2]: 18.2 ng/mL
murine anti-CD79b monoclonal antibody 104E1 (antibody, V domains shown, Mouse hybridoma antibody, tested as supernatant; also called murine antibody 104E1) VH: QVQLQQSGSELARPGASVKLSCKTSGNTFTSYGINWVKQRTGQGLEWIGEIFPRSGNIYYNEKFKGKATLTADKSSSTAYMELRSLTSEDSAVYFCAKGGTGDFDYWGQGTTLTVSS VL: DVLMTQTPLSLPVSLGDQASISCRSSQNIVHSDGNTYLEWYLQKPGQSPKLLIYKVSFRLSGVPDRFSGSGSGTDFTLKIRRVEAEDLGTYYCFQGSHVPWTFGGGTKLEIK |  |  |  |  | EC50 [4]: 0.0149 µg/mL; IC50 against BJAB (secondary ADC assay with HB58-ADC) [5]: 9.3 ng/mL
Humanized antibody AS11259 (antibody, human IgG1, kappa, Humanized IgG1 / kappa; also called naked antibody AS11259) heavy: not shown light: DVVMTQSPLSLPVTLGQPASISCRSSQNIVHSDGNTYLEWYQQRPGQSPRLLIYKVSFRLSGVPDRFSGSGSGTDFTLKISRVEAEDVGVYYCFQGSHVPWTFGGGTKVEIKRTVAAPSVFIFPPSDEQLKSGTASVVCLLNNFYPREAKVQWKVDNALQSGNSQESVTEQDSKDSTYSLSSTLTLSKADYEKHKVYACEVTHQGLSSPVTKSFNRGEC | 0.0216 nM | 3.63e-05 s⁻¹ | 1.68e+06 M⁻¹ s⁻¹ | 0.0583 µg/mL | EC50 [6]: 0.0178 µg/mL
Humanized antibody AS11252 (antibody, human IgG1, kappa, Humanized IgG1 / kappa) heavy: not shown light: DVVMTQSPLSLPVTLGQPASISCRSSQNIVHSDGNTYLEWYQQRPGQSPRLLIYKVSFRLSGVPDRFSGSGSGTDFTLKISRVEAEDVGVYYCFQGSHVPWTFGGGTKVEIKRTVAAPSVFIFPPSDEQLKSGTASVVCLLNNFYPREAKVQWKVDNALQSGNSQESVTEQDSKDSTYSLSSTLTLSKADYEKHKVYACEVTHQGLSSPVTKSFNRGEC | 0.0285 nM | 4.22e-05 s⁻¹ | 1.48e+06 M⁻¹ s⁻¹ | 0.0499 µg/mL | 
Humanized antibody AS11254 (antibody, human IgG1, kappa, V domains shown, Humanized IgG1 / kappa) VH: QVQLVQSGAEVKKPGASVKVSCKTSGNTFTSYGINWVKQAPGQGLEWMGEIFPRSGNIYYNEKFKGRVTITADKSTSTAYMELSSLRSEDTAVYYCAKGGTGDFDYWGQGTLVTVSS VL: DVVMTQSPLSLPVTLGQPASISCRSSQNIVHSDGNTYLEWYQQRPGQSPRLLIYKVSFRLSGVPDRFSGSGSGTDFTLKISRVEAEDVGVYYCFQGSHVPWTFGGGTKVEIKR | 0.0187 nM | 2.87e-05 s⁻¹ | 1.53e+06 M⁻¹ s⁻¹ | 0.0501 µg/mL | 

Now from value to binder, other results behind:

Kd [3] | koff [3] | kon [3] | EC50 [7] | Binder | also measured
0.0341 nM | 5.52e-05 s⁻¹ | 1.62e+06 M⁻¹ s⁻¹ |  | recombinant human-mouse chimeric antibody 104E1 (antibody, V domains shown, also called chimeric 104E1) VH: QVQLQQSGSELARPGASVKLSCKTSGNTFTSYGINWVKQRTGQGLEWIGEIFPRSGNIYYNEKFKGKATLTADKSSSTAYMELRSLTSEDSAVYFCAKGGTGDFDYWGQGTTLTVSS VL: DVLMTQTPLSLPVSLGDQASISCRSSQNIVHSDGNTYLEWYLQKPGQSPKLLIYKVSFRLSGVPDRFSGSGSGTDFTLKIRRVEAEDLGTYYCFQGSHVPWTFGGGTKLEIK | 
0.014 nM | 2.84e-05 s⁻¹ | 2.02e+06 M⁻¹ s⁻¹ | 0.0431 µg/mL | Humanized antibody AS11161 (antibody, human IgG1, kappa, V domains shown, Humanized IgG1 / kappa) VH: QVQLVQSGAEVKKPGSSVKVSCKTSGNTFTSYGINWVRQAPGQGLEWMGEIFPRSGNIYYNEKFKGKVTITADKSTSTAYMELSSLRSEDTAVYYCAKGGTGDFDYWGQGTLVTVSS VL: DVVMTQSPLSLPVTLGQPASISCRSSQNIVHSDGNTYLEWYQQRPGQSPRLLIYKVSFRLSGVPDRFSGSGSGTDFTLKISRVEAEDVGVYYCFQGSHVPWTFGGGTKVEIKR | 
0.0128 nM | 2.44e-05 s⁻¹ | 1.91e+06 M⁻¹ s⁻¹ | 0.064 µg/mL | Humanized antibody AS11164 (antibody, human IgG1, kappa, V domains shown, Humanized IgG1 / kappa) VH: QVQLVQSGAEVKKPGSSVKVSCKTSGNTFTSYGINWVRQAPGQGLEWMGEIFPRSGNIYYNEKFKGKVTITADKSTSTAYMELSSLRSEDTAVYYCAKGGTGDFDYWGQGTLVTVSS VL: DVLMTQSPLSLPVTLGQPASISCRSSQNIVHSDGNTYLEWYQQRPGQSPKLLIYKVSFRLSGVPDRFSGSGSGTDFTLKISRVEAEDVGVYYCFQGSHVPWTFGGGTKVEIKR | 
